Where two headings read alike, the source gives them in different places.
Key:
[1] = molecular target: human Glucagon-Like Peptide-1 receptor (hGLP-1-R) (Homo sapiens, UniProt P43220); experiment: hGLP-1-R functional cAMP assay; settings: read-out: EC50 GLP-1 Receptor Assay
Procedure: (§1) The hGIP-R functional assay uses hGIP-R (Usdin, T. B., Gruber, C., Modi, W. and Bonner, T. I., GenBank: AAA84418.1) cloned into pcDNA3.1 (Promega)-NeoR plasmid. The hGIP-R-pcDNA3.1/Neo plasmid is transfected into Chinese Hamster Ovary cells, CHO-S, for suspension cultures and selected in the presence of 500 μg/mL Geneticin (Invitrogen).

[2] = molecular target: T1, glucose-dependent insulinotropic polypeptide receptor, hGIP-R (Homo sapiens, UniProt P48546); experiment: hGIP-R functional cAMP assay; settings: read-out: EC50 GIP Receptor Assay
T1 sequence (P48546 22-466): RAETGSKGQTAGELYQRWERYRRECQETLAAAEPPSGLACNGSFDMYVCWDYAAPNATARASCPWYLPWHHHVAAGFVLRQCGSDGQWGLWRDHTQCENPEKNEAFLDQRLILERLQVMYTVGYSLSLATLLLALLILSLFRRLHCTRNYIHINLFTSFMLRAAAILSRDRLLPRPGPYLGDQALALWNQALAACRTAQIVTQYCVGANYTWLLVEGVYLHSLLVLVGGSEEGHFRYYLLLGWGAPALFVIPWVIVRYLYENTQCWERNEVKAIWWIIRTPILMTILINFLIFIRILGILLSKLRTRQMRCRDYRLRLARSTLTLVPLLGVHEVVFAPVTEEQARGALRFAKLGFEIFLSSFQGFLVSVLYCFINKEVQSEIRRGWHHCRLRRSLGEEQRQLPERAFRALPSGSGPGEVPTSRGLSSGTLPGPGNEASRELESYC
Procedure: as §1

[3] = Stability in co-formulation with GLP-1R agonist (SEC-HPLC, RP-HPLC); assay type: physicochemical; settings: four weeks
Procedure: Examples 1 and 3 are prepared and dialyzed against C6.5 (10 mM Citrate pH 6.5) using the same method as described above for preparation into T7 buffer. Compounds are formulated separately at 1 mg/mL peptide in buffer C6.5, C6.5M (10 mM Citrate, 46.4 mg/mL D-mannitol, pH 6.5), C6.5T (10 mM Citrate, 0.02% polysorbate-80, pH 6.5), and C6.5MT (10 mM Citrate, 46.4 mg/mL D-mannitol, 0.02% polysorbate-80, pH 6.5). A stock concentration of 46.5 mg/mL of dulaglutide in C6.5 is used to formulate dulaglutide at 3 mg/mL in C6.5 and C6.5MT. Co-formulations in C6.5MT are prepared having 3 mg/mL dulaglutide and 1 mg/mL Example 1, or 3 mg/mL dulaglutide and 1 mg/mL Example 3. Each formulated sample is transferred to three vials and maintained at 4° C., 25° C. and 40° C. Samples are assessed every two weeks for a total of four weeks. Samples are visually assessed for turbidity and phase separation. Stability is assessed by RP-HPLC and SEC-HPLC as described above. Both described HPLC methods give good separation of Example compounds and dulaglutide main peaks as well as all degradation peaks produced by stressing the sample at pH 9 and 40° C. for 3 days.

[4] = molecular target: T2, human glucagon receptor (hGcg-R) (Homo sapiens, UniProt P47871); experiment: hGcg-R functional cAMP assay; assay type: cell-based; settings: read-out: EC50 Gcg Receptor Assay
T2 construct: expressed in transfected cells; host or cells: 293HEK cells, hygromycin-selected
T2 sequence (P47871 26-477): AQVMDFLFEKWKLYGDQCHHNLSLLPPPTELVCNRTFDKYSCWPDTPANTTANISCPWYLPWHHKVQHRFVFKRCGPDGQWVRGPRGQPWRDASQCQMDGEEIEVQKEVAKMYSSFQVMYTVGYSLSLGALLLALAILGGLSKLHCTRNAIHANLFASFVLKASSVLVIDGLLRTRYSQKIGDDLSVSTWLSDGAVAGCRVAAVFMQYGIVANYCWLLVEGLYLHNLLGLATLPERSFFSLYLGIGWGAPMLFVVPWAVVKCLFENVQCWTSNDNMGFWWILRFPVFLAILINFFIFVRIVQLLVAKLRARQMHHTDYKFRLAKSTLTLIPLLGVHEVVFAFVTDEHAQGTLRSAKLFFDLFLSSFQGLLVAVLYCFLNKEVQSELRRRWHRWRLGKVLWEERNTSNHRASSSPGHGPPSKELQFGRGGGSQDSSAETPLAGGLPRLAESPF

Sequence of human Glucagon-Like Peptide-1 receptor (hGLP-1-R) (P43220 24-463): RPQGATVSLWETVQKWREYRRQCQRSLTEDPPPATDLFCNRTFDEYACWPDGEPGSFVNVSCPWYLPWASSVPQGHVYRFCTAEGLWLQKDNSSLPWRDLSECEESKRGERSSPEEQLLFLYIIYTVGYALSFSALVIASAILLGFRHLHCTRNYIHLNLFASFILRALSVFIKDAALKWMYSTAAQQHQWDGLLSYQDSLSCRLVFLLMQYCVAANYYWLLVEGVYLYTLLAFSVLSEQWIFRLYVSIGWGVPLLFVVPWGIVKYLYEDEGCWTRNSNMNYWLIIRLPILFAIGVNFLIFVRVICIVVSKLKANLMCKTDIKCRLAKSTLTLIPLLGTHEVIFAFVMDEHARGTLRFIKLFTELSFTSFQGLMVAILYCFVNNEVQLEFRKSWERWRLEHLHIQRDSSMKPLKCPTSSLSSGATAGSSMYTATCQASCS

## dulaglutide
[1]; sample C6.5-4 C.-4 wk
  EC50: 0.37 ± 0.11 nM
[1]; sample C6.5-40 C.-4 wk
  EC50: 0.31 ± 0.17 nM
[1]; sample C6.5MT-4 C.-4 wk
  EC50: 0.4 ± 0.14 nM
[1]; sample C6.5MT-40 C.-4 wk
  EC50: 0.29 ± 0.09 nM
[2]; sample C6.5-4 C.-4 wk
  EC50: > 100 nM
[2]; sample C6.5-40 C.-4 wk
  EC50: > 100 nM
[2]; sample C6.5MT-4 C.-4 wk
  EC50: > 100 nM
[2]; sample C6.5MT-40 C.-4 wk
  EC50: > 100 nM
[3]; RP-HPLC, C6.5, 4° C.
  GLP-1-Fc Δ % Main Peak: −1.45%
[3]; RP-HPLC, C6.5, 25° C.
  GLP-1-Fc Δ % Main Peak: >−10%
[3]; RP-HPLC, C6.5, 40° C.
  GLP-1-Fc Δ % Main Peak: −9.96%
[3]; RP-HPLC, C6.5MT, 4° C.
  GLP-1-Fc Δ % Main Peak: −0.46%
[3]; RP-HPLC, C6.5MT, 25° C.
  GLP-1-Fc Δ % Main Peak: −0.8%
[3]; RP-HPLC, C6.5MT, 40° C.
  GLP-1-Fc Δ % Main Peak: −7.47%
[3]; SEC-HPLC, C6.5, 4° C.
  GLP-1-Fc Δ % Main Peak: 0.19%
[3]; SEC-HPLC, C6.5, 25° C.
  GLP-1-Fc Δ % Main Peak: −0.54%
[3]; SEC-HPLC, C6.5, 40° C.
  GLP-1-Fc Δ % Main Peak: >−10%
[3]; SEC-HPLC, C6.5MT, 4° C.
  GLP-1-Fc Δ % Main Peak: 0.29%
[3]; SEC-HPLC, C6.5MT, 25° C.
  GLP-1-Fc Δ % Main Peak: −0.87%
[3]; SEC-HPLC, C6.5MT, 40° C.
  GLP-1-Fc Δ % Main Peak: −0.83%
[4]; sample C6.5-4 C.-4 wk
  EC50: 51.9 ± 68.1 nM
[4]; sample C6.5-40 C.-4 wk
  EC50: > 100 nM
[4]; sample C6.5MT-4 C.-4 wk
  EC50: 54 ± 65 nM
[4]; sample C6.5MT-40 C.-4 wk
  EC50: > 100 nM

Reference: patent publication US9884093B2 (Eli Lilly and Company, priority 2015, dated 2018)
